Laboratory results: patent US20030148973A1 (published 2003)

What follows are binders tested against T1, HLA-A0201 molecules on the surface of T2 cells (assay: T2 cell HLA-A0201 stabilization; 20 µg peptide on 10^6 acid-stripped T2 cells, BB7.2 staining, flow cytometry).
T1 construct: whole, on cells; Empty (peptide-stripped) HLA-A0201 on T2 cells; also called HLA-A2
Method: Subsequent dissociation of peptides from the HLA class 1 MHC molecules results in the loss of BB7.2 monoclonal antibody binding.
In order to determine whether the identified nonapeptides can be presented by HLA-A0201, T2 cells were propagated in RPMI complete medium (RPMI medium supplemented with 10% heat-inactivated bovine serum, 120.0 units per ml of penicillin G sodium, 120 μg per ml of streptomycin sulphate, and 0.35 mg per ml of L-glutamine). The ability of MAGE-A1 derived peptides to bind and stabilize surface HLA-A0201 molecules on T2 cells was determined utilizing a standard protocol (Deng, Y. (1997) J Immunol 158:1507-1515). The required number of T2 flasks were incubated overnight at 26° C. serum-free culture medium (RPMI medium supplemented with 120.0 units per ml of penicillin G sodium and 0.35 mg per ml of L-glutamine). The next day, cells were washed with RPMI medium (without bovine serum) and then resuspended in denaturing solution (300 mM Glycine in 1% BSA, pH 2.5) for 3 min, in order to strip the existing HLA A2 molecules of endogenous peptide. The stripped T2 cells were washed at once in an excess of RPMI media (without bovine serum) to neutralize the acidic stripping solution. To load the peptide of interest into the HLA-A2 peptide binding groove, 20 μg of specific peptide was pulsed onto 10⁶ denatured T2 cells in 2 ml peptide loading media (RPMI medium supplemented with 120.0 units per ml of penicillin G sodium; 0.35 mg per ml of L-glutamine; 1× sodium pyruvate; 1× non-essential amino acids; 1×2-mercapto-ethanol) for 4 hours at 26° C. The cells were washed in cold 1% BSA in PBS and resuspended in 100 μl of cold 1% BSA in PBS to prevent MHC protein turn over. […] The binding of BB7.2 was detected via the addition of 1.0 μg per test of goat anti-mouse IgG-Fc fluorescein (FITC) conjugate (BETHYL Laboratories Inc). […] The samples were then analyzed by Flow Cytometry, and the results were expressed in units of Fluorescence Index (FI), calculated by the equation: […]

Row | Binder | Fluorescence Index (FI)
1 | SAYGEPRKL (also called Peptide # 14) [MAGE-A1 230] | 1.61
2 | KVLEYVIKV (also called Peptide # 1) [MAGE-A1 278] | 2.18
3 | LQLVFGIDV (also called Peptide # 3) [MAGE-A1 151] | 0.52
